From publication PMC5906670, “Structural basis of epilepsy-related ligand–receptor complex LGI1–ADAM22” (Nature Communications, 2018)

B1: LGI1 (wild type, pull-down with ADAM22/23 ECD-FLAG) [human] / ADAM22 ECD-FLAG [human] (parent complex)
chain 1: KKPAKPKCPAVCTCTKDNALCENARSIPRTVPPDVISLSFVRSGFTEISEGSFLFTPSLQLLLFTSNSFDVISDDAFIGLPHLEYLFIENNNIKSISRHTFRGLKSLIHLSLANNNLQTLPKDIFKGLDSLTNVDLRGNSFNCDCKLKWLVEWLGHTNATVEDIYCEGPPEYKKRKINSLSSKDFDCIITEFAKSQDLPYQSLSIDTFSYLNDEYVVIAQPFTGKCIFLEWDHVEKTFRNYDNITGTSTVVCKPIVIETQLYVIVAQLFGGSHIYKRDSFANKFIKIQDIEILKIRKPNDIETFKIENNWYFVVADSSKAGFTTIYKWNGNGFYSHQSLHAWYRDTDVEYLEIVRTPQTLRTPHLILSSSSQRPVIYQWNKATQLFTNQTDIPNMEDVYAVKHFSVKGDVYICLTRFIGDSKVMKWGGSSFQDIQRMPSRGSMVFQPLQINNYQYAILGSDYSFTQVYNWDAEKAKFVKFQELNVQAPRSFTHVSINKRNFLFASSFKGNTQIYKHVIVDLSA
chain 2: SKRQLRRYPRNVEEETKYIELMIVNDHLMFKKHRLSVVHTNTYAKSVVNMADLIYKDQLKTRIVLVAMETWATDNKFAISENPLITLREFMKYRRDFIKEKSDAVHLFSGSQFESSRSGAAYIGGICSLLKGGGVNEFGKTDLMAVTLAQSLAHNIGIISDKRKLASGECKCEDTWSGCIMGDTGYYLPKKFTQCNIEEYHDFLNSGGGACLFNKPSKLLDPPECGNGFIETGEECDCGTPAECVLEGAECCKKCTLTQDSQCSDGLCCKKCKFQPMGTVCREAVNDCDIRETCSGNSSQCAPNIHKMDGYSCDGVQGICFGGRCKTRDRQCKYIWGQKVTASDKYCYEKLNIEGTEKGNCGKDKDTWIQCNKRDVLCGYLLCTNIGNIPRLGELDGEITSTLVVQQGRTLNCSGGHVKLEEDVDLGYVEDGTPCGPQMMCLEHRCLPVASFNFSTCLSSKEGTICSGNGVCSNELKCVCNRHWIGSDCNTYFPHNDDAKTGITLSG
B2: LGI1 (wild type, pull-down with ADAM22/23 ECD-FLAG) [human] / ADAM23 ECD-FLAG [human] (parent complex)
chain 1: B1 chain 1
chain 2: AVNPSRGIFEEMKYLELMIVNDHKTYKKHRSSHAHTNNFAKSVVNLVDSIYKEQLNTRVVLVAVETWTEKDQIDITTNPVQMLHEFSKYRQRIKQHADAVHLISRVTFHYKRSSLSYFGGVCSRTRGVGVNEYGLPMAVAQVLSQSLAQNLGIQWEPSSRKPKCDCTESWGGCIMEETGVSHSRKFSKCSILEYRDFLQRGGGACLFNRPTKLFEPTECGNGYVEAGEECDCGFHVECYGLCCKKCSLSNGAHCSDGPCCNNTSCLFQPRGYECRDAVNECDITEYCTGDSGQCPPNLHKQDGYACNQNQGRCYNGECKTRDNQCQYIWGTKAAGSDKFCYEKLNTEGTEKGNCGKDGDRWIQCSKHDVFCGFLLCTNLTRAPRIGQLQGEIIPTSFYHQGRVIDCSGAHVVLDDDTDVGYVEDGTPCGPSMMCLDRKCLQIQALNMSSCPLDSKGKVCSGHGVCSNEATCICDFTWAGTDCSIRDPVRNLHPPKDEGPKGPSA

Variants of: B1
Experiment: pull-down; anti-FLAG antibody agarose; proteins secreted from HEK293T cells; n = 4 independent experiments; read off a plot

**Q.** Which percent of parent does the source give for chain 1 KKPAKPKCPAVCTCTKDNALCENARSIPRTVPPDVISLSFVRSGFTEISEGSFLFTPSLQLLLFTSNSFDVISDDAFIGLPHLEYLFIENNNIKSISRHTFRGLKSLIHLSLANNNLQTLPKDIFKGLDSLTNVDLRGNSFNCDCKLKWLVEWLGHTNATVEDIYCEGPPEYKKRKINSLSSKDFDCIITEFAKSQDLPYQSLSIDTFSYLNDEYVVIAQPFTGKCIFLEWDHVEKTFRNYDNITGTSTVVCKPIVIETQLYVIVAQLFGGSHIYKRDSFANKFIKIQDIEILKIRKPNDIETFKIENNWYFVVADSSKAGFTTIYKWNGNGFYSHQSLHAWYRDTDVEYLEIVRTPQTLRTPHLILSSSSQRPVIYQWNKATQLFTNQTDIPNMEDVAAVKHFSVKGDVYICLTRFIGDSKVMKWGGSSFQDIQRMPSRGSMVFQPLQINNYQYAILGSDYSFTQVYNWDAEKAKFVKFQELNVQAPRSFTHVSINKRNFLFASSFKGNTQIYKHVIVDLSA [chain 1 Y399A] here?
**A.** ~4 % of WT

**Q.** How did the percent of parent turn out when chain 1 KKPAKPKCPAVCTCTKDNALCENARSIPRTVPPDVISLSFVRSGFTEISEGSFLFTPSLQLLLFTSNSFDVISDDAFIGLPHLEYLFIENNNIKSISRHTFRGLKSLIHLSLANNNLQTLPKDIFKGLDSLTNVDLRGNSFNCDCKLKWLVEWLGHTNATVEDIYCEGPPEYKKRKINSLSSKDFDCIITEFAKSQDLPYQSLSIDTFSYLNDEYVVIAQPFTGKCIFLEWDHVEKTFRNYDNITGTSTVVCKPIVIETQLYVIVAQLFGGSHIYKRDSFANKFIKIQDIEILKIRAPNDIETFKIENNWYFVVADSSKAGFTTIYKWNGNGFYSHQSLHAWYRDTDVEYLEIVRTPQTLRTPHLILSSSSQRPVIYQWNKATQLFTNQTDIPNMEDVYAVKHFSVKGDVYICLTRFIGDSKVMKWGGSSFQDIQRMPSRGSMVFQPLQINNYQYAILGSDYSFTQVYNWDAEKAKFVKFQELNVQAPRSFTHVSINKRNFLFASSFKGNTQIYKHVIVDLSA [chain 1 K297A] was run?
**A.** ~64 % of WT

**Q.** With chain 1 KKPAKPKCPAVCTCTKDNALCENARSIPRTVPPDVISLSFVRSGFTEISEGSFLFTPSLQLLLFTSNSFDVISDDAFIGLPHLEYLFIENNNIKSISRHTFRGLKSLIHLSLANNNLQTLPKDIFKGLDSLTNVDLRGNSFNCDCKLKWLVEWLGHTNATVEDIYCEGPPEYKKRKINSLSSKDFDCIITEFAKSQDLPYQSLSIDTFSYLNDEYVVIAQPATGKCIFLEWDHVEKTFRNYDNITGTSTVVCKPIVIETQLYVIVAQLFGGSHIYKRDSFANKFIKIQDIEILKIRKPNDIETFKIENNWYFVVADSSKAGFTTIYKWNGNGFYSHQSLHAWYRDTDVEYLEIVRTPQTLRTPHLILSSSSQRPVIYQWNKATQLFTNQTDIPNMEDVYAVKHFSVKGDVYICLTRFIGDSKVMKWGGSSFQDIQRMPSRGSMVFQPLQINNYQYAILGSDYSFTQVYNWDAEKAKFVKFQELNVQAPRSFTHVSINKRNFLFASSFKGNTQIYKHVIVDLSA [chain 1 F222A] as the variant, how does the percent of parent read?
**A.** ~37 % of WT

**Q.** How did the percent of parent turn out when chain 1 KKPAKPKCPAVCTCTKDNALCENARSIPRTVPPDVISLSFVRSGFTEISEGSFLFTPSLQLLLFTSNSFDVISDDAFIGLPHLEYLFIENNNIKSISRHTFRGLKSLIHLSLANNNLQTLPKDIFKGLDSLTNVDLRGNSFNCDCKLKWLVEWLGHTNATVEDIYCEGPPEYKKRKINSLSSKDFDCIITEFAKSQDLPYQSLSIDTFSYLNDEYVVIAQPFTGKCIFLEWDHVEKTFRNYDNITGTSTAVCKPIVIETQLYVIVAQLFGGSHIYKRDSFANKFIKIQDIEILKIRKPNDIETFKIENNWYFVVADSSKAGFTTIYKWNGNGFYSHQSLHAWYRDTDVEYLEIVRTPQTLRTPHLILSSSSQRPVIYQWNKATQLFTNQTDIPNMEDVYAVKHFSVKGDVYICLTRFIGDSKVMKWGGSSFQDIQRMPSRGSMVFQPLQINNYQYAILGSDYSFTQVYNWDAEKAKFVKFQELNVQAPRSFTHVSINKRNFLFASSFKGNTQIYKHVIVDLSA [chain 1 V250A] was run?
**A.** ~35 % of WT

Variants of: B2
Experiment: as above

**Q.** With chain 1 KKPAKPKCPAVCTCTKDNALCENARSIPRTVPPDVISLSFVRSGFTEISEGSFLFTPSLQLLLFTSNSFDVISDDAFIGLPHLEYLFIENNNIKSISRHTFRGLKSLIHLSLANNNLQTLPKDIFKGLDSLTNVDLRGNSFNCDCKLKWLVEWLGHTNATVEDIYCEGPPEYKKRKINSLSSKDFDCIITEFAKSQDLPYQSLSIDTFSYLNDEYVVIAQPFTGKCIFLEWDHVEKTFRNYDNITGTSTVVCKPIVIETQLYVIVAQAFGGSHIYKRDSFANKFIKIQDIEILKIRKPNDIETFKIENNWYFVVADSSKAGFTTIYKWNGNGFYSHQSLHAWYRDTDVEYLEIVRTPQTLRTPHLILSSSSQRPVIYQWNKATQLFTNQTDIPNMEDVYAVKHFSVKGDVYICLTRFIGDSKVMKWGGSSFQDIQRMPSRGSMVFQPLQINNYQYAILGSDYSFTQVYNWDAEKAKFVKFQELNVQAPRSFTHVSINKRNFLFASSFKGNTQIYKHVIVDLSA [chain 1 L268A] as the variant, how does the percent of parent read?
**A.** ~14 % of WT

**Q.** chain 1 KKPAKPKCPAVCTCTKDNALCENARSIPRTVPPDVISLSFVRSGFTEISEGSFLFTPSLQLLLFTSNSFDVISDDAFIGLPHLEYLFIENNNIKSISRHTFRGLKSLIHLSLANNNLQTLPKDIFKGLDSLTNVDLRGNSFNCDCKLKWLVEWLGHTNATVEDIYCEGPPEYKKRKINSLSSKDFDCIITEFAKSQDLPYQSLSIDTFSYLNDEYVVIAQPFTGKCIFLEWDHVEKTFRNYDNITGTSTVVCKPIVIETQLYVIVAQLFGGSHIYKRDSFANKFIKIQDIEILKIRAPNDIETFKIENNWYFVVADSSKAGFTTIYKWNGNGFYSHQSLHAWYRDTDVEYLEIVRTPQTLRTPHLILSSSSQRPVIYQWNKATQLFTNQTDIPNMEDVYAVKHFSVKGDVYICLTRFIGDSKVMKWGGSSFQDIQRMPSRGSMVFQPLQINNYQYAILGSDYSFTQVYNWDAEKAKFVKFQELNVQAPRSFTHVSINKRNFLFASSFKGNTQIYKHVIVDLSA [chain 1 K297A] was tested. Which percent of parent did it give?
**A.** ~46 % of WT
